{"source": "paper PMC8395186", "about": "“Structural Basis of Inhibition of DCLK1 by Ruxolitinib” (International Journal of Molecular Sciences, 2021)", "proteins": {"B1": {"name": "Doublecortin-like kinase 1 (DCLK1) kinase domain (domain or fragment, UniProt O15075 372-649, looked up)", "chain": "GEEVSEEGFQIPATITERYKVGRTIGDGNFAVVKECVERSTAREYALKIIKKSKCRGKEHMIQNEVSILRRVKHPNIVLLIEEMDVPTELYLVMELVKGGDLFDAITSTNKYTERDASGMLYNLASAIKYLHSLNIVHRDIKPENLLVYEHQDGSKSLKLGDFGLATIVDGPLYTVCGTPTYVAPEIIAETGYGLKVDIWAAGVITYILLCGFPPFRGSGDDQEVLFDQILMGQVDFPSPYWDNVSDSAKELITMMLLVDVDQRFSAVQVLEHPWVND", "notes": "Doublecortin-like kinase 1 (DCLK1), kinase domain, residues Gly372-Asp649; residues 376-648 are resolved in the structure; Non-phosphorylated; Crystallised with AMP-PNP, then soaked with ruxolitinib; Two molecules per asymmetric unit form the dimer; also called DCLK1KD; source: E. coli Rosetta2(DE3)pLysS, purified (Ni-NTA, TEV cleavage, SEC); not shown: His6, N-terminal, cleaved"}}, "target": "the molecule itself", "test": "crystal structure; sitting-drop vapor diffusion at 23 °C; co-crystallised with AMP-PNP, then soaked with ruxolitinib; two molecules per asymmetric unit; interface analysed with the PISA server"}
{"protein": "B1", "values": [{"measurement": "stoichiometry N", "value": 2}]}
